Blank lines part the entries; values can stand above or below the binder they belong to.
Molecular target: T1, Human CD40 Ligand/TNFSF5 Protein, His, Flag Tag, active trimer (MALS verified) (human, UniProt P29965 108-261, limits assumed)
T1 construct: Bought protein, described as an active trimer; The order of the CD40L part and the tags is not known; also called CD40L protein; CD40L (Acro CDL-H52Db); not shown: His tag and Flag tag
T1 sequence (looked up): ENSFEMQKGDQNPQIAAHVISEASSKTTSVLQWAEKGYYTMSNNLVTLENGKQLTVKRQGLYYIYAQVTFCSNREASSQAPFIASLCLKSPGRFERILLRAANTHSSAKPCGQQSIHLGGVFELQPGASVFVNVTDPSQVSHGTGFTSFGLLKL
Test: bio-layer interferometry (ForteBio); antibody 100 nM, human CD40L 100 nM, 30 C

- Kd: 0.315 nM
B1: Hz47E2 (antibody, human IgG1, kappa, L234A L235A, V domains shown)
VH: EVQLVESGGGLVKPGGSLRLSCAASGFTFSDYAMSWVRQAPGKGLEWVSEISTVHTYTYYSDAVAGRFTISRDNAKNSLYLQMNSLRAEDTAVYYCARDRVLDYWGQGTLVTVSS
VL: DIVMTQSPDSLAVSLGERATINCRASESVEYYDTSLMQWYQQKPGQPPKLLIYAASNLESGVPDRFSGSGSGTDFTLTISSLQAEDVAVYYCQQTKKLPWTFGQGTKVEIKR
notes: Expressed in ExpiCHO cells; also called Antibody Hz47E2; humanized anti-CD40L antibody Hz47E2

- Kd: 0.297 nM
B2: Hz33B9C5 (antibody, human IgG1, kappa, L234A L235A, V domains shown)
VH: QVQLVESGGGLVKPGGSLRLSCAASGFTFSDYYMYWIRQAPGKGLEWVSTISGGGTYTYSPDSVKGRFTISRDNAKNSLYLQMNSLRAEDTAVYYCARGEPGLAYWGQGTLVTVSS
VL: DIVMTQSPDSLAVSLGERATINCKASQSVDYYGDSYMHWYQQKPGQPPKLLIYASSNLESGVPDRFSGSGSGTDFTLTISSLQAEDVAVYYCQQSHEDPWTFGGGTKVEIKR
notes: Expressed in ExpiCHO cells; also called Antibody Hz33B9C5; humanized anti-CD40L antibody Hz33B9C5

Source: patent publication EP4703385A1 (Fortvita Biologics Inc., dated 2026)
